# Source: paper PMC8328514, “Homo-oligomerization of the human adenosine A2A receptor is driven by the intrinsically disordered C-terminus” (eLife, 2021)
# Substitutions are numbered along the chain they refer to. Numbers in names are those of the source.
# B1: human adenosine A2A receptor, full-length wild type (receptor, UniProt P29274 1-412, looked up)
# chain: MPIMGSSVYITVELAIAVLAILGNVLVCWAVWLNSNLQNVTNYFVVSLAAADIAVGVLAIPFAITISTGFCAACHGCLFIACFVLVLTQSSIFSLLAIAIDRYIAIRIPLRYNGLVTGTRAKGIIAICWVLSFAIGLTPMLGWNNCGQPKEGKNHSQGCGEGQVACLFEDVVPMNYMVYFNFFACVLVPLLLMLGVYLRIFLAARRQLKQMESQPLPGERARSTLQKEVHAAKSLAIIVGLFALCWLPLHIINCFTFFCPDCSHAPLWLMYLAIVLSHTNSVVNPFIYAYRIREFRQTFRKIIRSHVLRQQEPFKAAGTSARVLAAHGSDGEQVSLRLNGHPPGVWANGSAPHPERRPNGYALGLVSGGSAQESQGNTGLPDVELLSHELKGVCPEPPGLDDPLAQDGAGVS
# notes: adenosine A2A receptor, human, full-length wild type; also called A2AR-WT; A2AR-FL-WT
# B2: A2AR-C394X variant with alanine at 394 (receptor, human, UniProt P29274 1-412, looked up)
# chain: B1 chain with C394A
# notes: also called A2AR-C394X (alanine)
# B3: A2AR-C394X variant with methionine at 394 (receptor, human, UniProt P29274 1-412, looked up)
# chain: B1 chain with C394M
# notes: also called A2AR-C394X (methionine)
# B4: A2AR-FL-ERR:AAA (receptor, human, UniProt P29274 1-412, looked up)
# chain: B1 chain with E355A, R356A, R357A
# notes: adenosine A2A receptor, human, full length, residues 355ERR357 substituted by 355AAA357; also called A2AR-ERR:AAA variant of A2AR-FL-WT
# B5: A2AR-C394X variant with leucine at 394 (receptor, human, UniProt P29274 1-412, looked up)
# chain: B1 chain with C394L
# notes: also called A2AR-C394X (leucine)
# B6: A2AR-C394S (receptor, human, UniProt P29274 1-412, looked up)
# chain: B1 chain with C394S
# notes: adenosine A2A receptor, human, with C394S; also called A2AR-C394X variant
# B7: A2AR-C394X variant with valine at 394 (receptor, human, UniProt P29274 1-412, looked up)
# chain: B1 chain with C394V
# notes: also called A2AR-C394X (valine)
# B8: A2AR-P354ΔC (domain or fragment, human, UniProt P29274 1-354, looked up)
# chain: MPIMGSSVYITVELAIAVLAILGNVLVCWAVWLNSNLQNVTNYFVVSLAAADIAVGVLAIPFAITISTGFCAACHGCLFIACFVLVLTQSSIFSLLAIAIDRYIAIRIPLRYNGLVTGTRAKGIIAICWVLSFAIGLTPMLGWNNCGQPKEGKNHSQGCGEGQVACLFEDVVPMNYMVYFNFFACVLVPLLLMLGVYLRIFLAARRQLKQMESQPLPGERARSTLQKEVHAAKSLAIIVGLFALCWLPLHIINCFTFFCPDCSHAPLWLMYLAIVLSHTNSVVNPFIYAYRIREFRQTFRKIIRSHVLRQQEPFKAAGTSARVLAAHGSDGEQVSLRLNGHPPGVWANGSAPHP
# notes: adenosine A2A receptor, human, C-terminus truncated at site P354
# B9: A2AR-P395ΔC (domain or fragment, human, UniProt P29274 1-395, looked up)
# chain: MPIMGSSVYITVELAIAVLAILGNVLVCWAVWLNSNLQNVTNYFVVSLAAADIAVGVLAIPFAITISTGFCAACHGCLFIACFVLVLTQSSIFSLLAIAIDRYIAIRIPLRYNGLVTGTRAKGIIAICWVLSFAIGLTPMLGWNNCGQPKEGKNHSQGCGEGQVACLFEDVVPMNYMVYFNFFACVLVPLLLMLGVYLRIFLAARRQLKQMESQPLPGERARSTLQKEVHAAKSLAIIVGLFALCWLPLHIINCFTFFCPDCSHAPLWLMYLAIVLSHTNSVVNPFIYAYRIREFRQTFRKIIRSHVLRQQEPFKAAGTSARVLAAHGSDGEQVSLRLNGHPPGVWANGSAPHPERRPNGYALGLVSGGSAQESQGNTGLPDVELLSHELKGVCP
# notes: adenosine A2A receptor, human, C-terminus truncated at site P395
# B10: A2AR-Q372ΔC (domain or fragment, human, UniProt P29274 1-372, looked up)
# chain: MPIMGSSVYITVELAIAVLAILGNVLVCWAVWLNSNLQNVTNYFVVSLAAADIAVGVLAIPFAITISTGFCAACHGCLFIACFVLVLTQSSIFSLLAIAIDRYIAIRIPLRYNGLVTGTRAKGIIAICWVLSFAIGLTPMLGWNNCGQPKEGKNHSQGCGEGQVACLFEDVVPMNYMVYFNFFACVLVPLLLMLGVYLRIFLAARRQLKQMESQPLPGERARSTLQKEVHAAKSLAIIVGLFALCWLPLHIINCFTFFCPDCSHAPLWLMYLAIVLSHTNSVVNPFIYAYRIREFRQTFRKIIRSHVLRQQEPFKAAGTSARVLAAHGSDGEQVSLRLNGHPPGVWANGSAPHPERRPNGYALGLVSGGSAQ
# notes: adenosine A2A receptor, human, C-terminus truncated at site Q372 (lacks residue C394)
# B11: A2AR-G344ΔC (domain or fragment, human, UniProt P29274 1-344, looked up)
# chain: MPIMGSSVYITVELAIAVLAILGNVLVCWAVWLNSNLQNVTNYFVVSLAAADIAVGVLAIPFAITISTGFCAACHGCLFIACFVLVLTQSSIFSLLAIAIDRYIAIRIPLRYNGLVTGTRAKGIIAICWVLSFAIGLTPMLGWNNCGQPKEGKNHSQGCGEGQVACLFEDVVPMNYMVYFNFFACVLVPLLLMLGVYLRIFLAARRQLKQMESQPLPGERARSTLQKEVHAAKSLAIIVGLFALCWLPLHIINCFTFFCPDCSHAPLWLMYLAIVLSHTNSVVNPFIYAYRIREFRQTFRKIIRSHVLRQQEPFKAAGTSARVLAAHGSDGEQVSLRLNGHPPG
# notes: adenosine A2A receptor, human, C-terminus truncated at site G344
# B12: A2AR-N359ΔC (protein)
# chain: MPIMGSSVYITVELAIAVLAILGNVLVCWAVWLNSNLQNVTNYFVVSLAAADIAVGVLAIPFAITISTGFCAACHGCLFIACFVLVLTQSSIFSLLAIAIDRYIAIRIPLRYNGLVTGTRAKGIIAICWVLSFAIGLTPMLGWNNCGQPKEGKNHSQGCGEGQVACLFEDVVPMNYMVYFNFFACVLVPLLLMLGVYLRIFLAARRQLKQMESQPLPGERARSTLQKEVHAAKSLAIIVGLFALCWLPLHIINCFTFFCPDCSHAPLWLMYLAIVLSHTNSVVNPFIYAYRIREFRQTFRKIIRSHVLRQQEPFKAAGTSARVLAAHGSDGEQVSLRLNGHPPGVWANGSAPHPERRPN
# B13: A2AR-N359ΔC with the ERR:AAA mutations (domain or fragment, human, UniProt P29274 1-359, looked up)
# chain: B12 chain with E355A, R356A, R357A
# notes: adenosine A2A receptor, human, C-terminus truncated at site N359, residues 355ERR357 substituted by 355AAA357; also called A2AR-ERR:AAA variant of A2AR-N359ΔC; N359ΔC ERR:AAA
# B14: A2AR-G349ΔC (domain or fragment, human, UniProt P29274 1-349, looked up)
# chain: MPIMGSSVYITVELAIAVLAILGNVLVCWAVWLNSNLQNVTNYFVVSLAAADIAVGVLAIPFAITISTGFCAACHGCLFIACFVLVLTQSSIFSLLAIAIDRYIAIRIPLRYNGLVTGTRAKGIIAICWVLSFAIGLTPMLGWNNCGQPKEGKNHSQGCGEGQVACLFEDVVPMNYMVYFNFFACVLVPLLLMLGVYLRIFLAARRQLKQMESQPLPGERARSTLQKEVHAAKSLAIIVGLFALCWLPLHIINCFTFFCPDCSHAPLWLMYLAIVLSHTNSVVNPFIYAYRIREFRQTFRKIIRSHVLRQQEPFKAAGTSARVLAAHGSDGEQVSLRLNGHPPGVWANG
# notes: adenosine A2A receptor, human, C-terminus truncated at site G349
# Legend:
# [1] = molecular target: the molecule itself; test: SEC; consecutive rounds of SEC: a first round separates monomer from dimer/oligomer, a second round is run on the SEC-separated populations; total oligomer level relative to the monomer
# [2] = molecular target: the molecule itself; test: SDS-PAGE and western blot densitometry of SEC-separated dimer; SEC-separated dimers incubated without or with 5 mM TCEP, then SDS-PAGE and western blot; dimer band area relative to monomer band area
# [3] = molecular target: the molecule itself; test: SEC; Superdex 200 10/300 GL; ligand-active receptor in running buffer 150 mM NaCl, 50 mM sodium phosphate, 10% glycerol, 0.1% DDM, 0.1% CHAPS, 0.02% CHS, pH 8.0; 4°C; HMW oligomer and dimer peak areas (Gaussian fit) relative to the monomer peak
# [4] = molecular target: P29274; test: as above
protein,measurement,setting,value
B1,"total oligomer level (relative to monomer), SEC-separated monomer after redistribution",[1],1.6 arbitrary units
same,"total oligomer level (relative to monomer), initial sample",[1],2.87 arbitrary units
same,dimer level (relative to monomer) with 5 mM TCEP,[2],0.51 arbitrary units
same,dimer level (relative to monomer) without TCEP,[2],1.14 arbitrary units
same,total oligomer level (relative to monomer),[3],1.37 arbitrary units
same,HMW oligomer + dimer level (relative to monomer),[4],WT: 1.34
same,HMW oligomer level (relative to monomer),[4],ctrl: 0.88
B2,binding result,[3],binds
B3,binding result,[3],binds
B4,dimer level (relative to monomer),[3],0.29 arbitrary units
same,total oligomer level (relative to monomer),[3],0.94 arbitrary units
same,HMW oligomer level (relative to monomer),[4],ERR:AAA: 0.66
B5,binding result,[3],binds
B6,binding result,[3],binds
B7,binding result,[3],binds
B8,dimer level (relative to monomer),[3],0.19 arbitrary units
same,total oligomer level (relative to monomer),[3],0.62 arbitrary units
B9,binding result,[3],binds
B10,"total oligomer level (relative to monomer), SEC-separated monomer after redistribution",[1],1.4 arbitrary units
same,"total oligomer level (relative to monomer), initial sample",[1],1.49 arbitrary units
same,dimer level (relative to monomer) with 5 mM TCEP,[2],0.22 arbitrary units
same,dimer level (relative to monomer) without TCEP,[2],0.68 arbitrary units
B11,binding result,[3],binds
B12,HMW oligomer level (relative to monomer),[4],ctrl: 0.68
B13,dimer level (relative to monomer),[3],0.48 arbitrary units
same,total oligomer level (relative to monomer),[3],0.85 arbitrary units
same,HMW oligomer level (relative to monomer),[4],ERR:AAA: 0.38
B14,binding result,[3],binds
